Molecular target: T1, recombinant mTOR kinase domain (amino acid 1363-2549) (UniProt P42345 1363-2549)
T1 construct: also called mTOR kinase domain protein; mTOR (in vitro); source: bought: Sigma-Aldrich (Cat #14-770)
Assay: co-IP; in vitro: ETV7 and mTOR incubated overnight at 4 °C in the presence or absence of Ndel-FRB and/or 120 aa-LBE; ETV7 IPs immunoblotted for mTOR, ETV7 and Flag
Conditions: both partners purified

T1 sequence (P42345 1363-2549): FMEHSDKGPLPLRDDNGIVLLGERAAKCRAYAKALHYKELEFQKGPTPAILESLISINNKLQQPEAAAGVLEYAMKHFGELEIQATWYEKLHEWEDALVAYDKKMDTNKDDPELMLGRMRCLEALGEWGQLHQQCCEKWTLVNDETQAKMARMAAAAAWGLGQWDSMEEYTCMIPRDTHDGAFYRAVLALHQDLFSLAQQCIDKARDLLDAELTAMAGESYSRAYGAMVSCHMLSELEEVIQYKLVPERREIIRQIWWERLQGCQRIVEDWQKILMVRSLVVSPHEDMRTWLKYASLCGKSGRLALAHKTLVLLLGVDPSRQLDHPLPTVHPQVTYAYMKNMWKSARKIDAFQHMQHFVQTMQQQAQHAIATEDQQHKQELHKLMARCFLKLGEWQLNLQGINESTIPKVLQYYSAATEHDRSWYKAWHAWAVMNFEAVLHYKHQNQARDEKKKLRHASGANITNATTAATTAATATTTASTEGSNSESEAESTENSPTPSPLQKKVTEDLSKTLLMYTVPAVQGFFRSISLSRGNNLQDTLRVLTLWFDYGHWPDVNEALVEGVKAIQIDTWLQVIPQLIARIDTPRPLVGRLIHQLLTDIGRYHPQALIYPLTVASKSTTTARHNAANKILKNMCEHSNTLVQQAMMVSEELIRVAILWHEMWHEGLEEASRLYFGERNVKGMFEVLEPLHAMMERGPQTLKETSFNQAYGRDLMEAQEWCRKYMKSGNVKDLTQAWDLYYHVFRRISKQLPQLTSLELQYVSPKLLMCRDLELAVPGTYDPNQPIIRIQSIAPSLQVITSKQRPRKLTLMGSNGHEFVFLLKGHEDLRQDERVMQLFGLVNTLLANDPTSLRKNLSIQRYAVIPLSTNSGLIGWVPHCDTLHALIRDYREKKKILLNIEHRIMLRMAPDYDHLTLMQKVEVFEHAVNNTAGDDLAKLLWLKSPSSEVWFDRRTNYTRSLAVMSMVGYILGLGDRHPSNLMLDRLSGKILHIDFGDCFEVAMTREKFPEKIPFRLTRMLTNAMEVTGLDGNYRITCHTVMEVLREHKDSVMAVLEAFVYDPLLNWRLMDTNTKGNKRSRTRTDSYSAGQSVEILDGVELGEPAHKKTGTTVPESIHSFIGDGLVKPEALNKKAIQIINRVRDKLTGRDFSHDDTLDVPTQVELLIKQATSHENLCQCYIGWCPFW

binding result: binds
B1: ETV7 protein (recombinant) (natural protein)
chain: MQEGELAISPISPVAAMPPLGTHVQARCEAQINLLGEGGICKLPGRLRIQPALWSREDVLHWLRWAEQEYSLPCTAEHGFEMNGRALCILTKDDFRHRAPSSGDVLYELLQYIKTQRRALVCGPFFGGIFRLKTPTQHSPVPPEEVTGPSQMDTRRGHLLQPPDPGLTSNFGHLDDPGLARWTPGKEESLNLCHCAELGCRTQGVCSFPAMPQAPIDGRIADCRLLWDYVYQLLLDTRYEPYIKWEDKDAKIFRVVDPNGLARLWGNHKNRVNMTYEKMSRALRHYYKLNIIKKEPGQKLLFRFLKTPGKMVQDKHSHLEPLESQEQDRIEFKDKRPEISP
notes: ETV7, bought recombinant protein; also called ETV7 (in vitro); purified ETV7; source: bought: Origene (Cat #TP307742)

Reference: publication PMC11432197 (International Journal of Molecular Sciences, 2024)
